Experimental data as given in patent publication US20240317847A1 (Bayer, published 2024).
Substitutions are numbered along the chain they refer to.

T1: human IL-11 (human, UniProt P20809 22-199)
T1 sequence: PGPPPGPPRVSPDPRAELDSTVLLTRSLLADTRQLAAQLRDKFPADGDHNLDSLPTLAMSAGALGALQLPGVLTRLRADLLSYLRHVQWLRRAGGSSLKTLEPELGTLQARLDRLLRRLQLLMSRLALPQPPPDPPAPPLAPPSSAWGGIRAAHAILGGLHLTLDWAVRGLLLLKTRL

T2: murine IL-11 (mouse, UniProt P47873 22-199)
T2 sequence: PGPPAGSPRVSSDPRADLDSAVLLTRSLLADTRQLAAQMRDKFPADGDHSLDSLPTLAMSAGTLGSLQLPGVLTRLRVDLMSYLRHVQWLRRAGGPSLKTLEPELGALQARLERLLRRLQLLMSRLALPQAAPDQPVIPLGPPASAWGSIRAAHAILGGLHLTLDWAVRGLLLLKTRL

T3: human IL-11 (human, UniProt P20809 22-199)
T3 sequence: T1 sequence

T4: murine IL-11 (mouse, UniProt P47873 22-199)
T4 sequence: T2 sequence

T5: cynomolgus IL-11 (cynomolgus, UniProt P20808 22-199)
T5 construct: Invigate, lot #C290621-19; also called cIL11; cynoL-11
T5 sequence: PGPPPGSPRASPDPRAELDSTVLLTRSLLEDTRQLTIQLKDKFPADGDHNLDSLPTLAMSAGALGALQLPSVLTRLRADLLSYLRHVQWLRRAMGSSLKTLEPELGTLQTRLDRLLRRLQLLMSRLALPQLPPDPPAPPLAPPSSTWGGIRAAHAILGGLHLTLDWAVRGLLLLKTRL

T6: rat IL-11 (rat, UniProt Q99MF5 22-199)
T6 construct: Invigate, e.g. lot #C301019-19; also called rIL11
T6 sequence: T2 sequence with S50N, L84F, G94A, V137A, I138V

B1: TPP-21150 (antibody, V domains shown)
VH: EVQLLESGGGLVQPGGSLRLSCAASGFTFSSYGMHWVRQAPGKGLEWVSVISYDGSYKYYADSVKGRFTISRDNSKNTLYLQMNSLRAEDTAVYYCAAGVPDYWGQGTLVTVSS
VL: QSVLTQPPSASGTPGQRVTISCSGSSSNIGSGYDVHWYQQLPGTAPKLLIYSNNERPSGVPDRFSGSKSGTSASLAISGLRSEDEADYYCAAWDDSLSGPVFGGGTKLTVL
B2: TPP-27155 (antibody, V domains shown)
VH: B1 VH
VL: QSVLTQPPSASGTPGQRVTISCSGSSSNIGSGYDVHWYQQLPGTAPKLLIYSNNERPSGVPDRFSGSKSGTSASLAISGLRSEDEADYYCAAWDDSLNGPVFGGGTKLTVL
B3: TPP-27156 (antibody, V domains shown)
VH: B1 VH with S49A
VL: QSVLTQPPSASGTPGQRVTISCTGSSSNIGAGYDVHWYQQLPGTAPKLLIYSNNERPSGVPDRFSGSKSGTSASLAISGLRSEDEADYYCAAWDDSLNGPVFGGGTKLTVL
B4: TPP-21153 (antibody, V domains shown)
VH: B1 VH
VL: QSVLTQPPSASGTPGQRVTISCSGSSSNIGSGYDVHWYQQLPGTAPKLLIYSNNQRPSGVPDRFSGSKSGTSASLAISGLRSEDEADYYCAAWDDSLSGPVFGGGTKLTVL
B5: TPP-21158 (antibody, V domains shown)
VH: B1 VH with S49A, A98R
VL: B3 VL
B6: TPP-27154 (antibody, V domains shown)
VH: B1 VH
VL: B3 VL with N98S
B7: TPP-21157 (antibody, V domains shown)
VH: B1 VH
VL: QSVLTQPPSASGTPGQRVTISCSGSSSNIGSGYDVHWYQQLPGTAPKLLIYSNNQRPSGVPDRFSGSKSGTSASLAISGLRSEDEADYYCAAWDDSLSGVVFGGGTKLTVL
B8: TPP-29402 (antibody, human IgG1, V domains shown)
VH: B1 VH with M34G, S49A, V50L
VL: B3 VL with T23S, A31S, Y33L, N54E, D95S, N98Y
B9: TPP-29396 (antibody, human IgG1, V domains shown)
VH: B1 VH with S49A
VL: B3 VL with T23S, G30W, A31S, G32D, N54E, D95F, N98Y
B10: TPP-29401 (antibody, human IgG1, V domains shown)
VH: B1 VH with M34G, S49A
VL: B3 VL with T23S, A31S, G32Y, N54E, N98S
B11: TPP-29392 (antibody, human IgG1, V domains shown)
VH: B1 VH with S49A
VL: B3 VL with T23S, G30W, A31S, G32D, N54E, D95S, N98S
B12: TPP-29397 (antibody, human IgG1, V domains shown)
VH: B1 VH with S49A
VL: B3 VL with T23S, G30W, A31S, N54E, D95S, N98Y
B13: TPP-29393 (antibody, human IgG1, V domains shown)
VH: B1 VH with S49A
VL: B3 VL with T23S, A31S, G32D, Y33L, N54E, N98Y
B14: TPP-29404 (antibody, human IgG1, V domains shown)
VH: B1 VH with M34G, S49A, V50L
VL: B3 VL with T23S, A31S, G32Y, D95S, N98S
B15: TPP-29394 (antibody, human IgG1, V domains shown)
VH: B1 VH with S49A
VL: B3 VL with T23S, A31S, G32D, D95F, N98Y
B16: TPP-29403 (antibody, human IgG1, V domains shown)
VH: B1 VH with M34G, S49A, V50L
VL: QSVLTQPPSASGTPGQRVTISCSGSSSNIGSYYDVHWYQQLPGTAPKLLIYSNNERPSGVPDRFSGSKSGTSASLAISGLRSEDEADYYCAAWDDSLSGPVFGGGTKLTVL
B17: TPP-29400 (antibody, human IgG1, V domains shown)
VH: B1 VH with M34G, S49A, V50L
VL: B3 VL with T23S, A31S, G32D, D95F, N98S
B18: TPP-29399 (antibody, human IgG1, V domains shown)
VH: B1 VH with S49A
VL: B3 VL with T23S, A31S, G32D, D95S, N98S

biological target: T1, human IL-11; experiment: cell-based or functional assay

Binder | Efficacy (%), RGA [%] | IC50, RGA [nM]
B1 | 46.9 | 12
B2 | 56.5 | 20
B3 | 50.4 | 15
B4 | 34 | 26
B5 | 19.4 | 
B6 | 58.7 | 24
B7 | 13.4 | 

biological target: T2, murine IL-11; experiment: cell-based or functional assay

Binder | Efficacy (%), RGA [%] | IC50, RGA [nM]
B1 | 92.2 | 1.6
B2 | 94.3 | 1.1
B3 | 90.6 | 1.2
B4 | 81.2 | 3.4
B5 | 73.2 | 2.4
B6 | 92.9 | 1.8
B7 | 59.2 | 44

biological target: T3, human IL-11; experiment: cell-based or functional assay

Binder | RGA Efficacy (%) | RGA IC50 [nM]
B8 | 80.7 | 0.53
B9 | 78.9 | 0.65
B10 | 83.3 | 1.3
B11 | 80.2 | 1.2
B12 | 71 | 0.53
B13 | 87.3 | 0.61
B14 | 71.8 | 0.72
B15 | 89.8 | 1.7
B16 | 82.4 | 1.7
B17 | 59.6 | 0.46
B18 | 70.2 | 0.73

biological target: T4, murine IL-11; experiment: cell-based or functional assay

Binder | RGA Efficacy (%) | RGA IC50 [nM]
B8 | 95.5 | 0.19
B9 | 96.1 | 0.39
B10 | 96.9 | 0.15
B11 | 89.3 | 
B12 | 93.8 | 0.31
B13 | 96.2 | 0.24
B14 | 91.8 | 0.19
B15 | 93.9 | 0.48
B16 | 94.3 | 0.27
B17 | 87.3 | 
B18 | 90 | 

biological target: T1, human IL-11; experiment: SPR, antibody captured, IL-11 as analyte
Procedure: (§1) Antibodies were captured via anti-mouse Fc IgGs (“Mouse antibody capture kit, Order No. BR100383, Cytiva) covalently amine coupled to a Series S CM5 sensor chip (Cytiva). The amine coupling was carried out according to the manufacturer's instructions using 1-ethyl-3-(3-dimethylaminopropyl) carbodiimide hydrochloride (EDC), N-hydroxysuccinimide (NHS) and ethanolamine HCl, pH 8.5 (“Amine Coupling Kit” BR-1000-50, Cytiva.). Human IL-11 (Invigate, e.g., lot #C121021-19), and murine IL-11 (Invigate, e.g., lot #C210819-09) were used as analytes. […] Based on that experiment an IL-11 concentration range was chosen to optimally determine kinetics and affinity of anti-IL-11 antibodies in multicycle kinetics mode. The sensor surface was regenerated with glycine pH 1.7 after each antigen injection. Obtained sensorgrams were double referenced (subtraction of reference flow cell signal and buffer injection) and were fitted to a 1:1 Langmuir binding model to derive kinetic data using the Biacore T200 Evaluation software or the Biacore Insight software.
(§2) For the 2nd round of germlining, single reversions were then combined on DNA level, expressed and purified as described in Example 15, and tested by SPR as described in Example 16.

Binder | Kd [nM]
B1 | 5.6
B2 | 5.8
B3 | 6.6
B4 | 10
B5 | 47
B6 | 5.4
B7 | 13

biological target: T2, murine IL-11; experiment: SPR, antibody captured, IL-11 as analyte
Procedure: as §1, §2

Binder | Kd [nM]
B1 | 1.4
B2 | 0.65
B3 | 0.45
B4 | 3.6
B5 | 13
B6 | 1.3
B7 | 73

biological target: T3, human IL-11; experiment: SPR, antibody captured, IL-11 as analyte

Binder | Kd [nM]
B8 | 0.19
B9 | 0.78
B10 | 0.69
B11 | 0.92
B12 | 0.35
B13 | 0.66
B14 | 0.2
B15 | 1.2
B16 | 0.77
B17 | 0.5
B18 | 0.56

biological target: T4, murine IL-11; experiment: SPR, antibody captured, IL-11 as analyte

Binder | Kd [nM]
B8 | 0.045
B9 | 0.7
B10 | 0.11
B11 | 1.1
B12 | 0.11
B13 | 0.39
B14 | 0.091
B15 | 0.65
B16 | 0.18
B17 | 0.96
B18 | 0.93

biological target: T5, cynomolgus IL-11; experiment: SPR, antibody captured, IL-11 as analyte

Binder | Kd [nM]
B8 | 0.32
B9 | 0.92
B10 | 0.23
B11 | 0.85
B12 | 0.8
B13 | 0.72
B14 | 0.14
B15 | 0.67
B16 | 0.26
B17 | 0.35
B18 | 0.57

biological target: T6, rat IL-11; experiment: SPR, antibody captured, IL-11 as analyte

Binder | Kd [nM]
B8 | 0.018
B9 | 0.44
B10 | 0.058
B11 | 0.95
B12 | 0.057
B13 | 0.18
B14 | 0.067
B15 | 0.37
B16 | 0.11
B17 | 0.75
B18 | 0.53
